Results on three substances are retold here after publication doi:10.1101/2020.10.30.342212.

Where two headings read alike, the source gives them in different places.

The target of assay [1] is full-length PrgL-His (Enterococcus faecalis (plasmid pCF10)). The assay is described as follows: cross-linking.
The target in assay [2] is PrgL_(32-208)-His, soluble C-terminal NTF2-like domain of PrgL (Enterococcus faecalis (plasmid pCF10)). The assay can be described thus: SEC-MALS. On the technique in general: SEC sorts molecules by how far they enter the pores of the column.
For assay [3] the target is unchanged. The assay can be described thus: SEC-MALS. This is another data set of the same source.
The target of assay [4] is full-length PrgL-GFP (Enterococcus faecalis (plasmid pCF10)). The assay is described as follows: SEC.

The stoichiometry N is a count of units in the complex or per binding partner. In the case of full-length PrgL-His (natural protein), the stoichiometry N in assay [1] came out at 2.

On to “PrgL_(32-208)-His, soluble C-terminal NTF2-like domain of PrgL (domain or fragment)”, for which the stoichiometry N in assay [2] is 2; in assay [3] it was 10 to 12. As for full-length PrgL-GFP (natural protein), in assay [4], the stoichiometry N is 2.
